The text below walks through data of paper PMC8786865 (2022).

This experiment has as its target SARS-CoV-2 spike protein receptor-binding domain (RBD) (SARS-CoV-2, UniProt P0DTC2 319-541). As to the kind of experiment: SPR.

B1: #41 (antibody, V domains shown)
VH: QVQLVQSGAEVKKPGASVKVSCKVSGYTSPATIHWVRQAPGKGLEWMGGISPYKGDTIYAQKFQGRVTMTEDTSTDTAYMELSSLKSEDTAVYYCAKDSYYYDSSGSGLGGGFDYWGQGTLVTVSS
VL: DIQMTQSPSSVSASVGDRVTITCRASRDISSYLAWYQQKPGKAPKLLIYGASTRASGVPSRFSGSGSGTDFTLTISSLQPEDFANYYCLQYSIYPWTFGGGTKVEIK
Molecule B1 had a dissociation constant (Kd) of 0.295 nM.
